The target in this assay is T1, Recombinant Human DLL4 (delta-like protein 4) (human, UniProt Q9NR61 27-524).
T1 construct: also called rHuman DLL4; Delta-like 4
The experiment in a line: ELISA, DLL4 coated on plate, Fab at 100 nM.

Data on ten molecules can be found in patent US20120316071A1 (published 2012).

B1: Fab VH5-51_IGHD5-18*01>3_IGHJ4*01 G100K/G104T G24T/S28R/G35V & V3-4_IGLJ1*01 V91L/S96P S52K (Fab, V domains shown)
VH: EVQLVQSGAEVKKPGESLKISCKTSGYRFTSYWIVWVRQMPGKGLEWMGIIYPGDSDTRYSPSFQGQVTISADKSISTAYLQWSSLKASDTAMYYCARRKYSYTYDYFDYWGQGTLVTVSS
VL: QTVVTQEPSFSVSPGGTVTLTCGLSSGSVSTSYYPSWYQQTPGQAPRTLIYKTNTRSSGVPDRFSGSILGNKAALTITGAQADDESDYYCLLYMGPGISYVFGTGTKVTVL
notes: Fab expressed in E. coli; heavy chain vector adds CH1 with His6 and Flag tags, light chain vector adds lambda CL; also called H:KT TRV & L:LP S52K
B1: the “ELISA Signal-blank (100 nM Fab)” value is 0.32.

B2: Fab VH5-51_IGHD5-18*01>3_IGHJ4*01 G100K/G104T G24T/S28R/G35V & V3-4_IGLJ1*01 V91L/S96P S52T (Fab, V domains shown)
VH: EVQLVQSGAEVKKPGESLKISCKTSGYRFTSYWIVWVRQMPGKGLEWMGIIYPGDSDTRYSPSFQGQVTISADKSISTAYLQWSSLKASDTAMYYCARRKYSYTYDYFDYWGQGTLVTVSS
VL: QTVVTQEPSFSVSPGGTVTLTCGLSSGSVSTSYYPSWYQQTPGQAPRTLIYTTNTRSSGVPDRFSGSILGNKAALTITGAQADDESDYYCLLYMGPGISYVFGTGTKVTVL
notes: Fab expressed in E. coli; heavy chain vector adds CH1 with His6 and Flag tags, light chain vector adds lambda CL; also called H:KT TRV & L:LP S52T
Turning to B2, the “ELISA Signal-blank (100 nM Fab)” value stood at 0.34.

B3: Fab VH5-51_IGHD5-18*01>3_IGHJ4*01 G100K/G104T G24T/S28R/G35V & V3-4_IGLJ1*01 V91L/S96P S52N (Fab, V domains shown)
VH: EVQLVQSGAEVKKPGESLKISCKTSGYRFTSYWIVWVRQMPGKGLEWMGIIYPGDSDTRYSPSFQGQVTISADKSISTAYLQWSSLKASDTAMYYCARRKYSYTYDYFDYWGQGTLVTVSS
VL: QTVVTQEPSFSVSPGGTVTLTCGLSSGSVSTSYYPSWYQQTPGQAPRTLIYNTNTRSSGVPDRFSGSILGNKAALTITGAQADDESDYYCLLYMGPGISYVFGTGTKVTVL
notes: Fab expressed in E. coli; heavy chain vector adds CH1 with His6 and Flag tags, light chain vector adds lambda CL; also called H:KT TRV & L:LP S52N
In the case of B3, the “ELISA Signal-blank (100 nM Fab)” value turned out to be 0.45.

B4: Fab VH5-51_IGHD5-18*01>3_IGHJ4*01 G100K/G104T G24T/S28R/G35V & V3-4_IGLJ1*01 V91L/S96P T53D (Fab, V domains shown)
VH: EVQLVQSGAEVKKPGESLKISCKTSGYRFTSYWIVWVRQMPGKGLEWMGIIYPGDSDTRYSPSFQGQVTISADKSISTAYLQWSSLKASDTAMYYCARRKYSYTYDYFDYWGQGTLVTVSS
VL: QTVVTQEPSFSVSPGGTVTLTCGLSSGSVSTSYYPSWYQQTPGQAPRTLIYSDNTRSSGVPDRFSGSILGNKAALTITGAQADDESDYYCLLYMGPGISYVFGTGTKVTVL
notes: Fab expressed in E. coli; heavy chain vector adds CH1 with His6 and Flag tags, light chain vector adds lambda CL; also called H:KT TRV & L:LP T53D
As for B4, the “ELISA Signal-blank (100 nM Fab)” value is 0.16.

B5: Fab VH5-51_IGHD5-18*01>3_IGHJ4*01 G100K/G104T G24T/S28R/G35V & V3-4_IGLJ1*01 V91L/S96P T53K (Fab, V domains shown)
VH: EVQLVQSGAEVKKPGESLKISCKTSGYRFTSYWIVWVRQMPGKGLEWMGIIYPGDSDTRYSPSFQGQVTISADKSISTAYLQWSSLKASDTAMYYCARRKYSYTYDYFDYWGQGTLVTVSS
VL: QTVVTQEPSFSVSPGGTVTLTCGLSSGSVSTSYYPSWYQQTPGQAPRTLIYSKNTRSSGVPDRFSGSILGNKAALTITGAQADDESDYYCLLYMGPGISYVFGTGTKVTVL
notes: Fab expressed in E. coli; heavy chain vector adds CH1 with His6 and Flag tags, light chain vector adds lambda CL; also called H:KT TRV & L:LP T53K
For B5, the “ELISA Signal-blank (100 nM Fab)” value was 0.12.

B6: Fab VH5-51_IGHD5-18*01>3_IGHJ4*01 G100K/G104T G24T/S28R/G35V & V3-4_IGLJ1*01 V91L/S96P T53E (Fab, V domains shown)
VH: EVQLVQSGAEVKKPGESLKISCKTSGYRFTSYWIVWVRQMPGKGLEWMGIIYPGDSDTRYSPSFQGQVTISADKSISTAYLQWSSLKASDTAMYYCARRKYSYTYDYFDYWGQGTLVTVSS
VL: QTVVTQEPSFSVSPGGTVTLTCGLSSGSVSTSYYPSWYQQTPGQAPRTLIYSENTRSSGVPDRFSGSILGNKAALTITGAQADDESDYYCLLYMGPGISYVFGTGTKVTVL
notes: Fab expressed in E. coli; heavy chain vector adds CH1 with His6 and Flag tags, light chain vector adds lambda CL; also called H:KT TRV & L:LP T53E
Consider B6, for which the “ELISA Signal-blank (100 nM Fab)” value was 0.09.

B7: Fab VH5-51_IGHD5-18*01>3_IGHJ4*01 G100K/G104T G24T/S28R/G35V & V3-4_IGLJ1*01 V91L/S96P S52V (Fab, V domains shown)
VH: EVQLVQSGAEVKKPGESLKISCKTSGYRFTSYWIVWVRQMPGKGLEWMGIIYPGDSDTRYSPSFQGQVTISADKSISTAYLQWSSLKASDTAMYYCARRKYSYTYDYFDYWGQGTLVTVSS
VL: QTVVTQEPSFSVSPGGTVTLTCGLSSGSVSTSYYPSWYQQTPGQAPRTLIYVTNTRSSGVPDRFSGSILGNKAALTITGAQADDESDYYCLLYMGPGISYVFGTGTKVTVL
notes: Fab expressed in E. coli; heavy chain vector adds CH1 with His6 and Flag tags, light chain vector adds lambda CL; also called H:KT TRV & L:LP S52V
B7: the “ELISA Signal-blank (100 nM Fab)” value came to 0.44.

B8: Fab VH5-51_IGHD5-18*01>3_IGHJ4*01 G100K/G104T G24T/S28R/G35V & V3-4_IGLJ1*01 V91L/S96P T53H (Fab, V domains shown)
VH: EVQLVQSGAEVKKPGESLKISCKTSGYRFTSYWIVWVRQMPGKGLEWMGIIYPGDSDTRYSPSFQGQVTISADKSISTAYLQWSSLKASDTAMYYCARRKYSYTYDYFDYWGQGTLVTVSS
VL: QTVVTQEPSFSVSPGGTVTLTCGLSSGSVSTSYYPSWYQQTPGQAPRTLIYSHNTRSSGVPDRFSGSILGNKAALTITGAQADDESDYYCLLYMGPGISYVFGTGTKVTVL
notes: Fab expressed in E. coli; heavy chain vector adds CH1 with His6 and Flag tags, light chain vector adds lambda CL; also called H:KT TRV & L:LP T53H
B8: the “ELISA Signal-blank (100 nM Fab)” value stood at 0.14.

B9: Fab VH5-51_IGHD5-18*01>3_IGHJ4*01 G100K/G104T G24T/S28R/G35V & V3-4_IGLJ1*01 V91L/S96P T53I (Fab, V domains shown)
VH: EVQLVQSGAEVKKPGESLKISCKTSGYRFTSYWIVWVRQMPGKGLEWMGIIYPGDSDTRYSPSFQGQVTISADKSISTAYLQWSSLKASDTAMYYCARRKYSYTYDYFDYWGQGTLVTVSS
VL: QTVVTQEPSFSVSPGGTVTLTCGLSSGSVSTSYYPSWYQQTPGQAPRTLIYSINTRSSGVPDRFSGSILGNKAALTITGAQADDESDYYCLLYMGPGISYVFGTGTKVTVL
notes: Fab expressed in E. coli; heavy chain vector adds CH1 with His6 and Flag tags, light chain vector adds lambda CL; also called H:KT TRV & L:LP T53I
With B9, the “ELISA Signal-blank (100 nM Fab)” value came out at 0.3.

B10: Fab VH5-51_IGHD5-18*01>3_IGHJ4*01 G100K/G104T G24T/S28R/G35V & V3-4_IGLJ1*01 V91L/S96P S52W (Fab, V domains shown)
VH: EVQLVQSGAEVKKPGESLKISCKTSGYRFTSYWIVWVRQMPGKGLEWMGIIYPGDSDTRYSPSFQGQVTISADKSISTAYLQWSSLKASDTAMYYCARRKYSYTYDYFDYWGQGTLVTVSS
VL: QTVVTQEPSFSVSPGGTVTLTCGLSSGSVSTSYYPSWYQQTPGQAPRTLIYWTNTRSSGVPDRFSGSILGNKAALTITGAQADDESDYYCLLYMGPGISYVFGTGTKVTVL
notes: Fab expressed in E. coli; heavy chain vector adds CH1 with His6 and Flag tags, light chain vector adds lambda CL; also called H:KT TRV & L:LP S52W
For B10, the “ELISA Signal-blank (100 nM Fab)” value came out at 0.29.
